We go through 3 molecules from PMC6312871 (Heliyon, 2018).

Where “and” joins values, the source holds several entries; their conditions need not be identical. Equal values may be shown once.

For data set [1], the target named is Photosystem I (monomer) (Prochlorococcus marinus MIT9313 (endogenous in thylakoid membranes)) (UniProt Q7V510). The experiment in a line: sucrose gradient centrifugation.
Data set [2] shares this target. The experiment in a line: native gel or EMSA. For orientation: A gel shift assay detects complexes by their altered migration in electrophoresis.
Data set [3] concerns the target Photosystem II (monomer, core complex) (Prochlorococcus marinus MIT9313 (endogenous in thylakoid membranes)) (UniProt Q7V6I0). Kind of data set: native gel or EMSA.
The target is the same in data set [4]. Kind of data set: native gel or EMSA. The source holds these as a separate data set.
The data set “native gel or EMSA” concerns the molecule itself. The experiment in a line: native gel or EMSA.

Chain of Photosystem II (monomer, core complex) (Prochlorococcus marinus MIT9313 (endogenous in thylakoid membranes)) (Q7V6I0 whole entry, looked up, one chain of several): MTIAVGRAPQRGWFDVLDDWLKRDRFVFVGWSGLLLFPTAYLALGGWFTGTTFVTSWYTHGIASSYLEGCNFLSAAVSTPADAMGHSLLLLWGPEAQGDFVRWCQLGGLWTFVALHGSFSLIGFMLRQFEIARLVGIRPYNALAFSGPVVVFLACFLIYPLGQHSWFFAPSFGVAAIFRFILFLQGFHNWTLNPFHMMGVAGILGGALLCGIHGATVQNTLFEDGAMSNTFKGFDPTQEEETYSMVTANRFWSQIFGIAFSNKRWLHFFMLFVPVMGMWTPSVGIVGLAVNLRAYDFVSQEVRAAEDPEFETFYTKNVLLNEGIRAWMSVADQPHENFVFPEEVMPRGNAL

Consider “Photosystem I (monomer) (from UniProt Q7V510 1-776; Q7V511 1-749; Q7V8Y4 1-68) (complex)”, for which the stoichiometry N in data set [1] and in data set [2] was 3 throughout.

For “Photosystem II (monomer, core complex) (from UniProt Q7V6I0 1-351; Q7V4Q1 1-49; Q7V4P9 1-65)”, the stoichiometry N (commonly a count of units in the complex or per binding partner) in data set [3] amounted to 2.

B1: light-harvesting antenna protein PcbB (divinyl chlorophyll a/b-binding protein) (natural protein, UniProt Q7V6U4 1-350, looked up)
chain: MQTYGNPNPTYGWWAGNAGTTNRSGKFLAAHIAHTGLMAFWAGSFTLFELSRYDPSVPMGHQPLVALPHLATLGIGVGDGGVITDTYPIVVTAVLHLVLSMVYAAGGLMHSLLFNGDIGEMGVKWARKFDFKWDDPDKLTFILGHHLFLLGLGNVQFVEWAKYYGLYDNAEGVVRTVVPNLNIGMVWNAQFNFLAINSLEDVMGGHAFLALFMMSGGLWHIVTKQAGEYTTFKGKGILSAEAQLSWALAGVGWMALVAAFWCASNTTIYPDTFFGEVLDLKFSISPYWVDTANLPEGTYTSRAWLTNIHYYLGFFYIQGHLWHALRALGFDFKRVSNAIGNADSATITLN
For B1, the stoichiometry N (PcbB per PSII dimer) in data set [4] is 8. For the same molecule, the “stoichiometry N” value in the data set “native gel or EMSA” is 2 and 3 and 4.
